From patent US20260166158A1, “HSP90-BINDING CONJUGATES AND FORMULATIONS THEREOF” (Fusion Pharmaceuticals Inc., priority 2019, published 2026)
pKd: −log10 of the molar value.

Columns and labels:
[1] = target: T1, purified N-terminal HSP90a (Homo sapiens, UniProt P07900); test: HSP90 binding, competitive fluorescence polarization assay
T1 construct: 350 ng of N-terminal HSP90a
Description: HSP90 binding was determined by a competitive fluorescence polarization assay with purified N-terminal HSP90a. A series of dilutions of the test compounds were prepared with 10% DMSO in assay buffer and 10 μl of the dilution was added to a 100 μl reaction so that the final concentration of DMSO is 1% in all reactions. The reactions were conducted at room temperature for 3 hours in a 100 μl mixture containing assay buffer, 5 nM FITC Labeled Geldanamycin, 350 ng of N-terminal HSP90a, and the test compound. Fluorescence intensity was measured at an excitation of 485 nm and an emission of 530 nm using a Tecan Infinite M1000 microplate reader. Fluorescence intensity is converted to fluorescence polarization using the Tecan Magellan6 software. The fluorescence polarization data were analyzed using the computer software, Graphpad Prism. The fluorescence polarization (FPt) in absence of the compound in each data set was defined as 100% activity. In the absence of protein and the compound, the value of fluorescent polarization (FPb) in each data set was defined as 0% activity. The percent activity in the presence of the compound was calculated according to the following equation: % activity=(FP−FPb)/(FPt−FPb)×100%, where FP=the fluorescence polarization in the presence of the compound. HSP90 binding data are below.

[2] = system: NCI-H460 tumor-bearing mice (lung cancer); test: Biodistribution: lutetium accumulation in tumor, plasma and healthy tissues by ICP-MS; format: in vivo; conditions: for % ID/g uptake, H460 tumor, 24 h / % ID/g uptake, H460 tumor, 72 h / % ID/g uptake, Kidney, 24 h / % ID/g uptake, Kidney, 72 h / % ID/g uptake, Liver, 24 h / % ID/g uptake, Liver, 72 h / % ID/g uptake, Plasma, 24 h / % ID/g uptake, Plasma, 72 h: 0.5 mg/kg lutetium conjugate; for % ID/g uptake, H460 tumor, 24 h / % ID/g uptake, Kidney, 24 h / % ID/g uptake, Liver, 24 h / % ID/g uptake, Plasma, 24 h / T/K (Tumor/Kidney ratio) / T/L (Tumor/Liver ratio) / T/P (Tumor/Plasma ratio) / Kidney uptake, % ID/g 24 h / Liver uptake, % ID/g 24 h / Plasma, % ID/g 24 h / Tumor uptake, % ID/g, 24 h: 24 h; for Kidney uptake, % ID/g 24 h / Liver uptake, % ID/g 24 h / Plasma, % ID/g 24 h / Tumor uptake, % ID/g, 24 h: second table
Description: Lutetium accumulation was measured in tumor, plasma and healthy tissues of NCI-H460 tumor-bearing mice (lung cancer). NCJ-H460 tumor bearing mice were dosed with 0.5 mg/kg of lutetium conjugates. At the time points indicated, mice were sacrificed and tumor, liver, kidneys and plasma were taken. All tissues were analyzed for lutetium content by ICP-MS, and lutetium uptake in % ID/g determined by the following equation: […]
Biodistribution at 24 h and Tumor/Kidney ratio (T/K), Tumor/Liver ratio (T/L), Tumor/Plasma ratio (T/P) are give in the table below.

Row | Compound | pKd [1] | % ID/g uptake, H460 tumor, 24 h [2] | % ID/g uptake, H460 tumor, 72 h [2] | % ID/g uptake, Kidney, 24 h [2] | % ID/g uptake, Kidney, 72 h [2] | % ID/g uptake, Liver, 24 h [2] | % ID/g uptake, Liver, 72 h [2] | % ID/g uptake, Plasma, 24 h [2] | % ID/g uptake, Plasma, 72 h [2] | T/K (Tumor/Kidney ratio) [2] | T/L (Tumor/Liver ratio) [2] | T/P (Tumor/Plasma ratio) [2] | Kidney uptake, % ID/g 24 h [2] | Liver uptake, % ID/g 24 h [2] | Plasma, % ID/g 24 h [2] | Tumor uptake, % ID/g, 24 h [2]
1 | CCNC(=O)c1nnc(-c2cc(C(C)C)c(O)cc2O)n1-c1ccc(OC2CCN(C(=O)CCNC(=O)[C@@H](CCC(=O)O)NC(=O)[C@@H](CCC(=O)O)NC(=O)[C@@H](CCC(=O)O)NC(=O)COCCOCCNC(=O)[C@H](CCCCNC(=O)CC[C@H](C(=O)O)N3CCN4CCN5CCN(CC3)CC(=O)[O][Lu]([O]C(=O)C5)[O]C(=O)C4)NC(=O)CCCc3ccc(I)cc3)CC2)cc1 [T11] | 9.15 | 6.37 % ID/g | 1.74 % ID/g | 14.90 % ID/g | 5.21 % ID/g | 1.03 % ID/g | 0.46 % ID/g | 0.51 % ID/g | 0.02 % ID/g | – | – | – | – | – | – | –
2 | CCNC(=O)c1nnc(-c2cc(C(C)C)c(O)cc2O)n1-c1ccc(CN2CCN(C(=O)CCNC(=O)[C@@H](CCC(=O)N3CCN(Cc4ccc(-n5c(C(=O)NCC)nnc5-c5cc(C(C)C)c(O)cc5O)cc4)CC3)NC(=O)CCNC(=O)[C@@H](CCC(=O)O)NC(=O)[C@@H](CCC(=O)O)NC(=O)[C@@H](CCC(=O)O)NC(=O)COCCOCCNC(=O)[C@H](Cc3ccccc3)NC(=O)CNC(=O)[C@H](CCCCNC(=O)CC[C@H](C(=O)O)N(CC)CCN3CCN4CCN(C)CC(=O)[O][Lu]([O]C(=O)C4)[O]C(=O)C3)NC(=O)CCCc3ccc(I)cc3)CC2)cc1 [T15] | 9.37 | 2.16 % ID/g | 0.70 % ID/g | 12.50 % ID/g | 4.37 % ID/g | 1.78 % ID/g | 1.16 % ID/g | 2.79 % ID/g | 0.14 % ID/g | – | – | – | – | – | – | –
3 | CCNC(=O)c1nnc(-c2cc(C(C)C)c(O)cc2O)n1-c1ccc(CN2CCN(C(=O)C[C@H](NC(=O)CCNC(=O)[C@H](CO)NC(=O)[C@H](CO)NC(=O)[C@H](CO)NC(=O)CC[C@H](C(=O)O)N3CCN4CCN5CCN(CC3)CC(=O)[O][Lu]([O]C(=O)C5)[O]C(=O)C4)C(=O)N[C@H](C)C(=O)N3CCN(Cc4ccc(-n5c(C(=O)NCC)nnc5-c5cc(C(C)C)c(O)cc5O)cc4)CC3)CC2)cc1 [CMP44] | – | – | – | – | – | – | – | – | – | 3.28 | 2.34 | 2.47 | 1.34 % ID/g | 1.88 % ID/g | 1.78 % ID/g | 4.39 % ID/g
4 | CCNC(=O)c1nnc(-c2cc(C(C)C)c(O)cc2O)n1-c1ccc(C2CN(C(=O)CCOCCOCCOCCOCCOCCOCCOCCOCCOCCOCCOCCOCCNC(=O)CN3CCN4CCN5CCN(CC3)CC(=O)[O][Lu]([O]C(=O)C4)[O]C(=O)C5)C2)cc1 [CMP32] | – | – | – | – | – | – | – | – | – | 2.15 | 5.26 | 6.81 | 1.17 % ID/g | 0.48 % ID/g | 0.37 % ID/g | 2.52 % ID/g
5 | CCNC(=O)c1nnc(-c2cc(C(C)C)c(O)cc2O)n1-c1ccc(CC2CCN(C(=O)CCOCCOCCOCCOCCNC(=O)CN3CCN4CCN5CCN(CC3)CC(=O)[O][Lu]([O]C(=O)C4)[O]C(=O)C5)CC2)cc1 [CMP31] | – | – | – | – | – | – | – | – | – | 5.00 | 2.30 | 5.19 | 0.84 % ID/g | 1.83 % ID/g | 0.81 % ID/g | 4.20 % ID/g
6 | CCNC(=O)c1nnc(-c2cc(C(C)C)c(O)cc2O)n1-c1ccc(CN2CCN(C(=O)C[C@H](NC(=O)CCNC(=O)[C@@H](CO)NC(=O)[C@@H](CO)NC(=O)[C@@H](CO)NC(=O)CC[C@H](C(=O)O)N3CCN4CCN5CCN(CC3)CC(=O)[O][Lu]([O]C(=O)C5)[O]C(=O)C4)C(=O)N[C@H](C)C(=O)N3CCN(Cc4ccc(-n5c(C(=O)NCC)nnc5-c5cc(C(C)C)c(O)cc5O)cc4)CC3)CC2)cc1 [CMP48] | – | – | – | – | – | – | – | – | – | 3.08 | 2.33 | 4.87 | 1.50 % ID/g | 1.99 % ID/g | 0.95 % ID/g | 4.64 % ID/g
